According to the supplement of paper PMC10567573:

B1: TNXB (parent)
chain: LLQRELMVPGTRHSAVLRDLRSGT

Variants of: B1
Test: protein stability index of a GFP-peptide fusion (GPS, HEK-293T) (PSI 1-6); higher = more stable
Details: c terminus: a fixed tail appended
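Further: lentivirally expressed fusions sorted by FACS into six bins by GFP to DsRed ratio, PSI derived from sequencing read proportions per bin multiplied by bin number.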

Which protein stability index does the source give for LLQRELMVPGTRHNAVLRDLRSGT here?
Its protein stability index is 2.88.

With LLQRELMVPGTRHWAVLRDLRSGT as the variant, how does the protein stability index read?
The protein stability index was 2.11.

For LLQRELMVPGTRHPAVLRDLRSGT, which protein stability index is on record?
Its protein stability index is 2.32.

For LLQRELMVPGTRHVAVLRDLRSGT, which protein stability index is on record?
Its protein stability index is 2.22.

For LLQRELMVPGTRHFAVLRDLRSGT, which protein stability index is on record?
Its protein stability index is 2.32.

Which protein stability index does the source give for LLQRELMVPGTRHCAVLRDLRSGT here?
The protein stability index was 2.03.

With LLQRELMVPGTRHEAVLRDLRSGT as the variant, how does the protein stability index read?
Its protein stability index is 2.54.

For LLQRELMVPGTRHYAVLRDLRSGT, which protein stability index is on record?
The protein stability index was 2.71.

With LLQRELMVPGTRHDAVLRDLRSGT as the variant, how does the protein stability index read?
The protein stability index was 2.66.

With LLQRELMVPGTRHHAVLRDLRSGT as the variant, how does the protein stability index read?
The protein stability index was 2.26.

Which protein stability index does the source give for LLQRELMVPGTRHGAVLRDLRSGT here?
Its protein stability index is 2.63.

Which protein stability index does the source give for LLQRELMVPGTRHKAVLRDLRSGT here?
The protein stability index was 2.67.

With LLQRELMVPGTRHRAVLRDLRSGT as the variant, how does the protein stability index read?
Its protein stability index is 2.45.

For LLQRELMVPGTRHLAVLRDLRSGT, which protein stability index is on record?
Its protein stability index is 1.61.

Which protein stability index does the source give for LLQRELMVPGTRHIAVLRDLRSGT here?
Its protein stability index is 1.75.

Which protein stability index does the source give for LLQRELMVPGTRHTAVLRDLRSGT here?
The protein stability index was 2.45.

With LLQRELMVPGTRHQAVLRDLRSGT as the variant, how does the protein stability index read?
Its protein stability index is 2.85.

For LLQRELMVPGTRHAAVLRDLRSGT, which protein stability index is on record?
Its protein stability index is 2.2.

Which protein stability index does the source give for LLQRELMVPGTRHMAVLRDLRSGT here?
Its protein stability index is 2.23.

For LLQRELMVEGTRHSAVLRDLRSGT, which protein stability index is on record?
The protein stability index was 2.54.

With LLQRELMVVGTRHSAVLRDLRSGT as the variant, how does the protein stability index read?
The protein stability index was 2.38.

For LLQRELMVIGTRHSAVLRDLRSGT, which protein stability index is on record?
The protein stability index was 1.58.

Which protein stability index does the source give for LLQRELMVYGTRHSAVLRDLRSGT here?
The protein stability index was 2.01.

With LLQRELMVLGTRHSAVLRDLRSGT as the variant, how does the protein stability index read?
Its protein stability index is 2.02.

For LLQRELMVAGTRHSAVLRDLRSGT, which protein stability index is on record?
Its protein stability index is 2.35.

Which protein stability index does the source give for LLQRELMVKGTRHSAVLRDLRSGT here?
The protein stability index was 2.21.

With LLQRELMVCGTRHSAVLRDLRSGT as the variant, how does the protein stability index read?
The protein stability index was 2.

For LLQRELMVQGTRHSAVLRDLRSGT, which protein stability index is on record?
The protein stability index was 2.1.

With LLQRELMVHGTRHSAVLRDLRSGT as the variant, how does the protein stability index read?
Its protein stability index is 2.23.

For LLQRELMVGGTRHSAVLRDLRSGT, which protein stability index is on record?
The protein stability index was 2.3.

Which protein stability index does the source give for LLQRELMVDGTRHSAVLRDLRSGT here?
The protein stability index was 2.69.

With LLQRELMVRGTRHSAVLRDLRSGT as the variant, how does the protein stability index read?
Its protein stability index is 2.21.

For LLQRELMVFGTRHSAVLRDLRSGT, which protein stability index is on record?
Its protein stability index is 1.79.

With LLQRELMVTGTRHSAVLRDLRSGT as the variant, how does the protein stability index read?
The protein stability index was 2.03.

With LLQRELMVWGTRHSAVLRDLRSGT as the variant, how does the protein stability index read?
The protein stability index was 1.68.

Which protein stability index does the source give for LLQRELMVNGTRHSAVLRDLRSGT here?
Its protein stability index is 2.34.

For LLQRELMVSGTRHSAVLRDLRSGT, which protein stability index is on record?
The protein stability index was 2.2.

With LLQRELMVMGTRHSAVLRDLRSGT as the variant, how does the protein stability index read?
The protein stability index was 2.1.

With LLQRELMVPGTRHSAVLKDLRSGT as the variant, how does the protein stability index read?
The protein stability index was 2.39.

Which protein stability index does the source give for LLQRELMVPGTRHSAVLADLRSGT here?
The protein stability index was 2.68.

Which protein stability index does the source give for LLQRELMVPGTRHSAVLHDLRSGT here?
Its protein stability index is 2.86.

Which protein stability index does the source give for LLQRELMVPGTRHSAVLDDLRSGT here?
The protein stability index was 2.83.

For LLQRELMVPGTRHSAVLIDLRSGT, which protein stability index is on record?
Its protein stability index is 2.21.

With LLQRELMVPGTRHSAVLLDLRSGT as the variant, how does the protein stability index read?
The protein stability index was 1.94.

Which protein stability index does the source give for LLQRELMVPGTRHSAVLGDLRSGT here?
Its protein stability index is 2.44.

Which protein stability index does the source give for LLQRELMVPGTRHSAVLFDLRSGT here?
Its protein stability index is 2.02.

With LLQRELMVPGTRHSAVLCDLRSGT as the variant, how does the protein stability index read?
Its protein stability index is 2.42.

With LLQRELMVPGTRHSAVLEDLRSGT as the variant, how does the protein stability index read?
Its protein stability index is 3.33.

For LLQRELMVPGTTHSAVLRDLRSGT, which protein stability index is on record?
The protein stability index was 2.27.

For LLQRELMVPGTQHSAVLRDLRSGT, which protein stability index is on record?
Its protein stability index is 2.42.

With LLQRELMVPGTFHSAVLRDLRSGT as the variant, how does the protein stability index read?
The protein stability index was 1.98.

For LLQRELMVPGTHHSAVLRDLRSGT, which protein stability index is on record?
The protein stability index was 2.4.

For LLQRELMVPGTIHSAVLRDLRSGT, which protein stability index is on record?
The protein stability index was 2.47.

Which protein stability index does the source give for LLQRELMVPGTGHSAVLRDLRSGT here?
Its protein stability index is 3.09.

Which protein stability index does the source give for LLQRELMVPGTNHSAVLRDLRSGT here?
Its protein stability index is 2.76.

Which protein stability index does the source give for LLQRELMVPGTWHSAVLRDLRSGT here?
Its protein stability index is 2.35.

For LLQRELMVPGTLHSAVLRDLRSGT, which protein stability index is on record?
Its protein stability index is 2.07.

For LLQRELMVPGTVHSAVLRDLRSGT, which protein stability index is on record?
The protein stability index was 2.26.

For LLQRELMVPGTDHSAVLRDLRSGT, which protein stability index is on record?
Its protein stability index is 3.01.

For LLQRELMVPGTYHSAVLRDLRSGT, which protein stability index is on record?
The protein stability index was 2.45.

Which protein stability index does the source give for LLQRELMVPGTKHSAVLRDLRSGT here?
The protein stability index was 2.28.

For LLQRELMVPGTEHSAVLRDLRSGT, which protein stability index is on record?
The protein stability index was 2.39.

For LLQRELMVPGTPHSAVLRDLRSGT, which protein stability index is on record?
Its protein stability index is 2.91.

For LLQRELMVPGTAHSAVLRDLRSGT, which protein stability index is on record?
The protein stability index was 2.01.

Which protein stability index does the source give for LLQRELMVPGTCHSAVLRDLRSGT here?
The protein stability index was 1.94.

With LLQRELMVPGTMHSAVLRDLRSGT as the variant, how does the protein stability index read?
Its protein stability index is 1.85.

For LLQRELMVPGTSHSAVLRDLRSGT, which protein stability index is on record?
The protein stability index was 2.06.

With LLQRELMVPGTRPSAVLRDLRSGT as the variant, how does the protein stability index read?
Its protein stability index is 3.06.

Which protein stability index does the source give for LLQRELMVPGTRQSAVLRDLRSGT here?
The protein stability index was 3.

For LLQRELMVPGTRVSAVLRDLRSGT, which protein stability index is on record?
Its protein stability index is 2.1.

With LLQRELMVPGTRTSAVLRDLRSGT as the variant, how does the protein stability index read?
Its protein stability index is 2.22.

For LLQRELMVPGTRMSAVLRDLRSGT, which protein stability index is on record?
The protein stability index was 2.25.

For LLQRELMVPGTRSSAVLRDLRSGT, which protein stability index is on record?
Its protein stability index is 2.9.

For LLQRELMVPGTRESAVLRDLRSGT, which protein stability index is on record?
The protein stability index was 2.82.

For LLQRELMVPGTRDSAVLRDLRSGT, which protein stability index is on record?
Its protein stability index is 3.23.

With LLQRELMVPGTRRSAVLRDLRSGT as the variant, how does the protein stability index read?
The protein stability index was 3.11.

With LLQRELMVPGTRFSAVLRDLRSGT as the variant, how does the protein stability index read?
Its protein stability index is 1.59.

For LLQRELMVPGTRLSAVLRDLRSGT, which protein stability index is on record?
The protein stability index was 2.01.

With LLQRELMVPGTRGSAVLRDLRSGT as the variant, how does the protein stability index read?
Its protein stability index is 2.31.

Which protein stability index does the source give for LLQRELMVPGTRISAVLRDLRSGT here?
The protein stability index was 1.91.

With LLQRELMVPGTRCSAVLRDLRSGT as the variant, how does the protein stability index read?
Its protein stability index is 2.1.

With LLQRELMVPGTRNSAVLRDLRSGT as the variant, how does the protein stability index read?
The protein stability index was 2.58.

With LLQRELMVPGTRWSAVLRDLRSGT as the variant, how does the protein stability index read?
Its protein stability index is 2.01.

With LLQRELMVPGTRKSAVLRDLRSGT as the variant, how does the protein stability index read?
The protein stability index was 2.09.

Which protein stability index does the source give for LLQRELMVPGTRASAVLRDLRSGT here?
The protein stability index was 2.53.

Which protein stability index does the source give for LLQRELMVPGTRYSAVLRDLRSGT here?
The protein stability index was 2.15.

Which protein stability index does the source give for LLQRELMSPGTRHSAVLRDLRSGT here?
The protein stability index was 3.11.

With LLQRELMTPGTRHSAVLRDLRSGT as the variant, how does the protein stability index read?
Its protein stability index is 2.36.

With LLQRELMPPGTRHSAVLRDLRSGT as the variant, how does the protein stability index read?
Its protein stability index is 2.21.

With LLQRELMRPGTRHSAVLRDLRSGT as the variant, how does the protein stability index read?
Its protein stability index is 2.12.

For LLQRELMNPGTRHSAVLRDLRSGT, which protein stability index is on record?
The protein stability index was 2.59.

With LLQRELMQPGTRHSAVLRDLRSGT as the variant, how does the protein stability index read?
Its protein stability index is 2.22.

With LLQRELMWPGTRHSAVLRDLRSGT as the variant, how does the protein stability index read?
The protein stability index was 2.34.

Which protein stability index does the source give for LLQRELMYPGTRHSAVLRDLRSGT here?
The protein stability index was 2.32.
